Data from the DeepSol protein solubility set.

Test: soluble on expression in E. coli; label from the status in PepcDB or PDB records

Sequence	soluble on expression in E. coli
MSLCGIAGLFNCNLPADELRLDQAVAKLTHRGPDDRGIFLDGRFGMGHTRLSIIDLAGGHQPLFSEDRRLALIANGEIYNFIELRSELTAAGFRFQTQSDSEVILHAYLAFGEGFLERIQGMFAFALYDALEGRLILARDRLGIKPLFLARRPDGIAFASEIKALLPLLDQPREIDPQGLAQYFQNQFSTGATTVLRGVERVLPGEAVVVEAGKTTRRFRYWSPLAVRTEELDFDEAAARFDALMERVMVEHMRSDVPFGLFLSGGVDSSLLLALLTRYSGEPIRTFSVGFPGTSLTDELPLAEGLARRFRSRHREIRPGPQDILHSLPLTVWAADDLMRDNASLPTSLLARAAGEELKVVFSGEGGDEVFAGYGRYRTSPLERLFKSLLAPGSGGFRTRGSFRGRWPKTLFGPALLAAAQSARRPVQESWRETPREWSDLQRMQYVDLCHALPDNLLVKADRMLMAWGVEGRVPFLDHRVVEFGLSLPDRLKIEGRQGKLFLKRWGERLVPAEQLYARKEGHHHHHH	not soluble
MDSHVGEVDIFQQCKYIHEVELVNMKLQMRILETHIETKDRLLRNLEDIIDEQESRIANMEDFIQGRATSYTNRSNMLKGISVLSLDFGNLSEENLRLKNALSQMQKVARVNELLETDEDYESDMTSNEDRFALSRDSSCSVPRSVSPQPTGDVIKPYPQMVQSMREEGHWKKLQRCAEELKTEKDELKRLALDTKDAFNVCMAEMRMMLTSKTTDFFRVLIERYKAEMEKRKQLHNQLVELNGNIRVFYRIRPQLASETDNQKPVVVIDEMDNGVVHVSNTTGTRKTSAGADKVIPTDFSQDQIFNEVSPIITSCIDGYNVCIFAYGHTGSGKTYTMDGPVTMPGINQRAIMQLFETAKERTGDIKYDIKVAMMEIYNEKIRDLLNTSNTNLAIRQTEEGRSSIPGLEEVSVNSAEEVTETLARGRKNKAVAATEANIESSRSHVIVRVLVSATNLITKATTVGRLNLVDLAGSERVSQTNATGQLLKEAQAINKSLSELGNVVLALRQNQKHIPFRNCQLTRILEDSLNGDSKTLVIVHLSPDAKSLNESISSVNFAEKIGQVFTKSGTMKREPTRRSMTGISSGQRREIPASPRK	soluble
MDLPQKKKFTESERAALAKKLDDDLDQFMEEMAARKSDKKEERKPFDFDDWCKEIDQHPAFMTEMPTDGKYQDTIEALQSMKYDKEDDEDKQMNAEHHKEEGNKHFKFKKYRWATDCYSNGIKENSPDRKLNAVLYFNRAAAQKHLGNLRSAIKDCSMGRKFDPTHLKGVIRGAECLLELEYAKDALNWIESSKKIFAFTKETSDTPDLTDDEKKFIDQLETLRVKSVELSLKEERDKRKSRAEERKETESKKQLLDALKERNLNLCPRVPFDRPELMDMARLTVSLPLMHSHECVKFDDDLNLVWPILLQYPEAGQTDVLTETNELTTVGELLKEVLNSPAQWDPEHKFNFENVRFFVSDEYDEYLMEVYEWNDFKSVLSMPGYQIKQGLPVIMIMTKEKAASSLEALAEDENRYVAK	soluble
MSLKQISIRDVAALAGVSVGSASRVINGAANVTPDVRERVDRAIAALRYRPNHAAQSLRSRTSKTIGCMFSDVANPLYARAFRALEEHFRREGYMLLLANGLNDAEREIDIIQTFQLRGMDGVILAPGNERHPGVLDAVRRLSMPAVIYDRDLAVDADAVLFDHVAGVKAAIHHLVELGHTRIALALWQVKSRPVRRRIEGYKAAFKAAGLPVPDLILQEPTPTSSAFDDVTRLLQLPDPPTAFLAQGTHTLTSTLRAIAKQGLRVPEDVSVIGIGDTDFAQTYDPPLTVLRTPTDEVAAHAVEMLLSRLAAKGDASLSPRKALIQFDLILRESCAPVAREGHHHHHH	not soluble
MGHHHHHHSHDKAIKETSILEEYSINWTQKLGAGISGPVRVCVKKSTQERFALKILLDRPKARNEVRLHMMCATHPNIVQIIEVFANSVQFPHESSPRARLLIVMEMMEGGELFHRISQHRHFTEKQASQVTKQIALALRHCHLLNIAHRDLKPENLLFKDNSLDAPVKLCDFGFAKIDQGDLMTPQFTPYYVAPQVLEAQRRHQKEKSGIIPTSPTPYTYNKSCDLWSLGVIIYVMLCGYPPFYSKHHSRTIPKDMRRKIMTGSFEFPEEEWSQISEMAKDVVRKLLKVKPERRLTIEGVLDHPWLNSTEALDNVLPSAQLMMDKAVVAGIQQAHAEQLANMRIQDLKVSLKPLHSVNNPILRKRKLLGTKPKDSVYIHDHENGAEDSNVALEKLRDVIAQCILPQAGENEDEKLNEVMQEAWKYNRECKLLRDTLQSFSWNGRGFTDKVDRLKLAEIVKQVIEEQT	soluble
SLTQKEQEEKLYMMLPVFNRVFGNAPPNTMTEKFSDLLQFTTQVSRLMVTEIRRRASNKSTEAASRAIVQFLEINQSEEASRGWMLLTTINLLASSGQKTVDCMTTMSVPSTLVKCLYLFFDLPHVPEAGGGAQNELPLAERRGLLQKAFVQILVKLCSFVSPAEELAQKDDLQLLFSAITSWCPPYNLPWRKSAGEVLMTISRHGLSVNVVKYIHEKECLSTCVQNMQQSDDLSPLEIVEMFAGLSCFLKDSSDVSQTLLDDFRIWQGYNFLCDLLLRLEQGKEAECRDALKDLVSLVTSLTTYGVSELKPAGVTTGAPFLLPGFAVPQPAGKGHSVRNIQAFAVLQNAFLKAKTNFLAQIILDAITNIYMADNANYFILESQHTLSQFAEKISKLPEVQNKYFEMLEFVVFSLNYIPCKELISVSILLKSSSSYHCSIIAMKTLLKFTRHDYIFKDVFREVGLLEVMVNLLHKYAALLKDPAQALN	soluble
MGSDKIHHHHHHMRTEFIPPSVTRAAFRLPTLSRLPPLTALRAFVVAARHASFSRAAEELHVSTAAIGQQVRILETHLGQPLFSRQRGELVLTDAGSTLYPGLADAFETMIGSLSDLMASGSRRQVKVLAEGCFAARWLAPRLGRIVPALGDVDIWIESLEGDAIDLTQFDADCAIVATHGQIPGFIHEPLFADTVSAVCTPDFAARHQLCGEPERLRDISFAMLRGNGGDAAFEWANWLRACRIPLRLSATGPRFSRQTALIEAILSGHGIGLARHSLISDELKSGRLIAAFGTPQPTASRYHLLTSPDRRRLPEIASLLALLREDIRSLEAAA	not soluble
MGSDKIHHHHHHMGRYLERTEHISRFSQAHYFFSIDAPKSVKKEHILESVLNMAGSYVEYLGSGNKMETMEVAYYIGLNEFNASSIKHSIVKARENARGAKDSISSELWQSINTFYHSINLMDRATFNEMGIYEFSKNVLQNSSVIKGNIDNTLLHEEAWSIIHLGQHIERTTQVIRMIVTKINDINRIPKKEYYNMIELFENVNLLKSTEAYDMSKIFYREVPSVSHSLEFLTLNRNFPKSIVYNLRHIEHCLLRITNLSKHETNSLEFYASKLLCTVKYTSIQDIEKEPLAFYNDLLNKVAKLADMLETKYLQY	not soluble
KDFLNPKYTLENFIVGEGNRLAYEVVKEALENLGSLYNPIFIYGSVGTGKTHLLQAAGNEAKKRGYRVIYSSADDFAQAMVEHLKKGTINEFRNMYKSVDLLLLDDVQFLSGKERTQIEFFHIFNTLYLLEKQIILASDRHPQKLDGVSDRLVSRFEGGILVEIELDNKTRFKIIKEKLKEFNLELRKEVIDYLLENTKNVREIEGKIKLIKLKGFEGLERKERKERDKLMQIVEFVANYYAVKVEDILSDKRNKRTSEARKIAMYLCRKVCSASLIEIARAFKRKDHTTVIHAIRSVEEEKKKDRKFKHLVGFLEKQAFDKIC	soluble
MGSDKIHHHHHHMIKKSDYPRYIQMLKRRPEFSGFTPDEFNQLEQQMRIKEYPKGQLLFDQADTRSRFYFVISGLLRSERIDETGDFSFYSFIAENKGFPYRGLFHDHEYAYAVNTMTPAVVASFPMAEFENLLTRNSEMMKRVVVEMGQIINENEDQLQQMVTSSASDRVRNALKILGRKLGNQLAGDRWFVPYAITLIELAKMAGTTRETASQVVQRLEADGQIIYEHKHFTIFIK	not soluble
MKTFIWNSNYETGVAKVDDQHQCLVEIINEYSHLLANNTTTETDIELTLNKLIDYTKFHFKDEEQLMYSVGLDTRHITHHEKLHRDILDEISTLLSDQVTDKLSIARYILDLIIHWLVYHILGTDMNMAKLEHHHHHH	not soluble
MSFDGFFLHHLTNELKENLLYGRIQKVNQPFERELVLTIRNHRKNYKLLLSAHPVFGRVQITQADFQNPQVPNTFTMIMRKYLQGAVIEQLEQIDNDRIIEIKVSNKNEIGDAIQATLIIEIMGKHSNIILVDRAENKIIESIKHVGFSQNSYRTILPGSTYIEPPKTAAVNPFTITDVPLFEILQTQELTVKSLQQHFQGLGRDTAKELAELLTTDKLKRFREFFARPTQANLTTASFAPVLFSDSHATFETLSDMLDHFYQDKAERDRINQQASDLIHRVQTELDKNRNKLSKQEAELLATENAELFRQKGELLTTYLSLVPNNQDSVILDNYYTGEKIEIALDKALTPNQNAQRYFKKYQKLKEAVKHLSGLIADTKQSITYFESVDYNLSQASIDDIEDIREELYQAGFLKSRQRDKRHKRKKPEQYLASDGTTILMVGRNNLQNEELTFKMAKKGELWFHAKDIPGSHVIIKDNLDPSDEVKTDAAELAAYYSKARLSNLVQVDMIEAKKLHKPSGAKPGFVTYTGQKTLRVTPDQAKILSMKLS	not soluble
MKLKLFFHIVLLCFSLPIWAMKTVDVTASPKMDDQARMNLAQEFANKQQWIDVFNIMYPMALEGNITAQSNLGMLYNLGRGTVRDYEKAYWWFSEAAEKGSVKGLNNLGVMYLRGDYVKQNTEQAIKLFERTAQAKDTDAMMMLSNIYRLQNQPEKIIGMAEESRLEHHHHHH	not soluble
NLKDVEHVVILMQENRSFDHYFGTLKGVRGFGDRMAIPLPDGQRVWHQKGSKGEILPYHFDTSTTSAQRVDGTPHTWPDAQQAWNEGRMDKWLPAKTERSLGYYKEQDIAFQFAMANAFTICDAYHCSFQGGTNPNRLFLWTGTNDPLGQHGGPVTTNDHDSNGPVEQGYTWTTYPERLQAAGITWRVYQDMADNFSDNPLIGFRQYRAAAPDSPLIVNGLSTWKLDALKRDVLANSLPQVSWIVAPAKYSEHPGPSSPIWGAEYTSWVLDALTANPEVWSKTALLVMFDENDGFFDHVAPPAAPSLNKDGTLRGKTTADATLEWHTKGDIRYRNQPYGLGPRVPMYVISPWSKGGWVNSQVFDHTSVIRFLEQRFGVMEPNISPWRRAVCGDLTSAFNFANPNNEPFPELPDTSQADAIVASQIKLPKPKPPAVAAMPKQEMGIRPARALPYELGVHARYRSGGDALSLTFANTGKAGAVFQVFDLLDSENPPKRYTVGARKRLHDSFQGDASGDYHLEVHGPNGFLRVFRGNLRRDLAERKAPLPEVRIDYEPLFGNLRVQLINRGRHPVKLTVKDNVYRQGERRTVNVPPGQRREVRYSLRSSGNWYDFSVSAQGADSFLRRFSGRMEDGRSGFSDPGMGLGTLTF	not soluble
